Molecular target: T1, human CD39 on the cell surface (human, UniProt P49961 1-510)
T1 construct: whole, on cells; This one entry covers every cell-surface human CD39 assay, on transfected and on endogenous cells; also called 239T-hCD39; Jurkat-hCD39
T1 sequence (looked up): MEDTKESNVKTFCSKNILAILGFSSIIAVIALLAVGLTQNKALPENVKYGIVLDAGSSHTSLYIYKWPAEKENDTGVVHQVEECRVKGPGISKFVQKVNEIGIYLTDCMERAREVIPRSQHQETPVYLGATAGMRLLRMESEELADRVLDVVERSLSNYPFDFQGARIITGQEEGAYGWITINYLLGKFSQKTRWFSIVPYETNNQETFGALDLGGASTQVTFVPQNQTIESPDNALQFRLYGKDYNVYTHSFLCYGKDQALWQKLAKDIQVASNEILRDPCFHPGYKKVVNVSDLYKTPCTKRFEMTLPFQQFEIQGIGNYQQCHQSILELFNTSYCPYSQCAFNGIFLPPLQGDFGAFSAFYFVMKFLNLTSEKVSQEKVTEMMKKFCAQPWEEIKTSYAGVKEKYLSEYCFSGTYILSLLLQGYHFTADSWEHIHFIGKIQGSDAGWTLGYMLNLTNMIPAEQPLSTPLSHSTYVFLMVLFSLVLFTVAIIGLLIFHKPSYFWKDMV
Test: flow cytometry on human CD39-overexpressing HEK293T or Jurkat cells

binding result: binds
B1: P4_h1lala (antibody, V domains shown)
VH: QVQLKESGPSLVQPSQSLSITCTVSGFSLTNYGVHWVRQSPGKGLEWLGVILRRGSTDYNAAFMSRLSITKDNSKSQVFFKMNSLQADDTAIYYCAKTAVVAGDYFDYWGQGTTLTVSS
VL: DIVMTQSHKFMSTSVGDRVSVTCKASQNVGTNVAWYQQKPGQSPKALIYSASYRYSGVPDRFTGSGSGTDFTLTISNVQSEDLAEYFCQQYNSYPLTFGTGTKLEIKR
notes: Chimeric antibody
